The series concerns the target HDAC1 (histone deacetylase 1), wild-type (UniProt Q13547).

Sequence of HDAC1 (histone deacetylase 1), wild-type (Q13547 whole entry): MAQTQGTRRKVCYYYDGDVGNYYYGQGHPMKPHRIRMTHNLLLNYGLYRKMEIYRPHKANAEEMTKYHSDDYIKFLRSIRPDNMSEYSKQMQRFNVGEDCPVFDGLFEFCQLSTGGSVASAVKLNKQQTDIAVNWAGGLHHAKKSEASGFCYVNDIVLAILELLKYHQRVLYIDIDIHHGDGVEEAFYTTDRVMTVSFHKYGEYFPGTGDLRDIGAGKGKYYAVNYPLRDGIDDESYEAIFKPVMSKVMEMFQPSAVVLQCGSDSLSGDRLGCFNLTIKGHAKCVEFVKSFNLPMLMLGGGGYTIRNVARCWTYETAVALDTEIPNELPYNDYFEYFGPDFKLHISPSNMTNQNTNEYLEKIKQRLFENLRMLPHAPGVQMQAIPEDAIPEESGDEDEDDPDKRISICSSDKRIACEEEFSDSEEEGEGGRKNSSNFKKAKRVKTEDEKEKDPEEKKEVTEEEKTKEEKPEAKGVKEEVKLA

As for “SENP1 catalytically inactive mutant (R630L, K631M)”, the “deacetylase activity of HDAC1 precipitates” value is recorded as “expression of SENP1 mutant did not affect HDAC1's deacetylase activity”.
